Data from article doi:10.1101/2022.04.25.489375 (bioRxiv, 2022).

What was measured:
[1] = target: Phosphomannose isomerase from T. kodakarensis (T. kodakarensis); experiment: SEC
SEC = target: the molecule itself; experiment: SEC

“Phosphomannose isomerase from T. kodakarensis (enzyme)” showed a stoichiometry N [1] of 2.

B1: Phosphomannose isomerase from T. barophilus (enzyme, UniProt F0LL70 1-113, looked up)
chain: MKAEIKEFIDRGTYRKAPLFEGELPEGSYAQIVEIKPKQTVPKHYHEKQYELFYIISGQAKLGIEEREYDAKPGDIFLVKPKTVHWVVNKKEEPFRLFVIKLNYFGDDSVWLE
For B1, the “stoichiometry N” value (SEC) was 2.
